Reference: patent US20140087995A1 (published 2014)
Numbered stars: 1 amine (or outer) side, 2 acyl side, 3 side chain; on linkers, the order of the positions; unused ones are H or OH. Bridge positions count the residues as written; N and C are the ends. Side chains are listed from the residue outwards. Ends that are not written are not given here. * marks the point of attachment. C20 diacid = O=C(O)CCCCCCCCCCCCCCCCCCC(=O)*; γGlu = O=C(O)[C@H](CCC(=O)[*:2])N[*:1]; AEEA = NCCOCCOCC(=O)O

T1: human calcitonin receptor (human, UniProt P30988 25-474)
T1 construct: whole, on cells; also called hCTR; hCT
T1 sequence (looked up): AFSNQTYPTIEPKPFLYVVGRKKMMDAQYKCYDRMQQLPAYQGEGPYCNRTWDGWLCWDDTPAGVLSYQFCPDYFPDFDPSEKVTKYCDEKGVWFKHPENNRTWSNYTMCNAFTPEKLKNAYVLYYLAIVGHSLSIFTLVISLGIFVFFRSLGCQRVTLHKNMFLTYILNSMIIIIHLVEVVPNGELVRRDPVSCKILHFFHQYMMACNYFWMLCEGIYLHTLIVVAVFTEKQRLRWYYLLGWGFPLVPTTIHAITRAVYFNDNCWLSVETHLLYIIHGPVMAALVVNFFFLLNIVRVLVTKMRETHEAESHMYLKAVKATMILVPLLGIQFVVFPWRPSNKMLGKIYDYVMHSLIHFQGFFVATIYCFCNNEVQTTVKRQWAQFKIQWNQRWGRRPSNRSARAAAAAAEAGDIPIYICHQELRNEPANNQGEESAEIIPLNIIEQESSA

B1: N^α1-[(4S)-4-carboxy-4-(19-carboxynonadecanoylamino)butanoyl]-[His14,Arg17,Pro21,Pro27,Glu35]-h-amylin (peptide)
peptide: {C20 diacid-γGlu}-KCNTATCATQRLAHFLRHSSPNFGAIPSSTNVGSETY-NH2
modifications: disulfide 2-7
SMILES: CC[C@H](C)[C@H](NC(=O)[C@H](C)NC(=O)CNC(=O)[C@H](Cc1ccccc1)NC(=O)[C@H](CC(N)=O)NC(=O)[C@@H]1CCCN1C(=O)[C@H](CO)NC(=O)[C@H](CO)NC(=O)[C@H](Cc1c[nH]cn1)NC(=O)[C@H](CCCNC(=N)N)NC(=O)[C@H](CC(C)C)NC(=O)[C@H](Cc1ccccc1)NC(=O)[C@H](Cc1c[nH]cn1)NC(=O)[C@H](C)NC(=O)[C@H](CC(C)C)NC(=O)[C@H](CCCNC(=N)N)NC(=O)[C@H](CCC(N)=O)NC(=O)[C@@H](NC(=O)[C@H](C)NC(=O)[C@@H]1CSSC[C@H](NC(=O)[C@H](CCCCN)NC(=O)CC[C@H](NC(=O)CCCCCCCCCCCCCCCCCCC(=O)O)C(=O)O)C(=O)N[C@@H](CC(N)=O)C(=O)N[C@@H]([C@@H](C)O)C(=O)N[C@@H](C)C(=O)N[C@@H]([C@@H](C)O)C(=O)N1)[C@@H](C)O)C(=O)N1CCC[C@H]1C(=O)N[C@@H](CO)C(=O)N[C@@H](CO)C(=O)N[C@H](C(=O)N[C@@H](CC(N)=O)C(=O)N[C@H](C(=O)NCC(=O)N[C@@H](CO)C(=O)N[C@@H](CCC(=O)O)C(=O)N[C@H](C(=O)N[C@@H](Cc1ccc(O)cc1)C(N)=O)[C@@H](C)O)C(C)C)[C@@H](C)O
notes: also called compound 30
B2: N^α1-[(4S)-4-carboxy-4-[[(4S)-4-carboxy-4-(19-carboxynonadecanoylamino)butanoyl]amino]butanoyl]-[Glu14,Arg17,Pro21,Pro27,Pro37]-h-amylin (peptide)
peptide: {C20 diacid-γGlu-γGlu}-KCNTATCATQRLAEFLRHSSPNFGAIPSSTNVGSNTP-NH2
modifications: disulfide 2-7
SMILES: CC[C@H](C)[C@H](NC(=O)[C@H](C)NC(=O)CNC(=O)[C@H](Cc1ccccc1)NC(=O)[C@H](CC(N)=O)NC(=O)[C@@H]1CCCN1C(=O)[C@H](CO)NC(=O)[C@H](CO)NC(=O)[C@H](Cc1c[nH]cn1)NC(=O)[C@H](CCCNC(=N)N)NC(=O)[C@H](CC(C)C)NC(=O)[C@H](Cc1ccccc1)NC(=O)[C@H](CCC(=O)O)NC(=O)[C@H](C)NC(=O)[C@H](CC(C)C)NC(=O)[C@H](CCCNC(=N)N)NC(=O)[C@H](CCC(N)=O)NC(=O)[C@@H](NC(=O)[C@H](C)NC(=O)[C@@H]1CSSC[C@H](NC(=O)[C@H](CCCCN)NC(=O)CC[C@H](NC(=O)CC[C@H](NC(=O)CCCCCCCCCCCCCCCCCCC(=O)O)C(=O)O)C(=O)O)C(=O)N[C@@H](CC(N)=O)C(=O)N[C@@H]([C@@H](C)O)C(=O)N[C@@H](C)C(=O)N[C@@H]([C@@H](C)O)C(=O)N1)[C@@H](C)O)C(=O)N1CCC[C@H]1C(=O)N[C@@H](CO)C(=O)N[C@@H](CO)C(=O)N[C@H](C(=O)N[C@@H](CC(N)=O)C(=O)N[C@H](C(=O)NCC(=O)N[C@@H](CO)C(=O)N[C@@H](CC(N)=O)C(=O)N[C@H](C(=O)N1CCC[C@H]1C(N)=O)[C@@H](C)O)C(C)C)[C@@H](C)O
notes: also called compound 14
B3: N^ε1-[2-[2-[2-(19-carboxynonadecanoylamino)ethoxy]ethoxy]acetyl]-[Arg17,Pro21,Pro27]-h-amylin (peptide)
peptide: K([AEEA-C20 diacid])CNTATCATQRLANFLRHSSPNFGAIPSSTNVGSNTY-NH2
modifications: disulfide 2-7; N-terminus assumed
SMILES: CC[C@H](C)[C@H](NC(=O)[C@H](C)NC(=O)CNC(=O)[C@H](Cc1ccccc1)NC(=O)[C@H](CC(N)=O)NC(=O)[C@@H]1CCCN1C(=O)[C@H](CO)NC(=O)[C@H](CO)NC(=O)[C@H](Cc1c[nH]cn1)NC(=O)[C@H](CCCNC(=N)N)NC(=O)[C@H](CC(C)C)NC(=O)[C@H](Cc1ccccc1)NC(=O)[C@H](CC(N)=O)NC(=O)[C@H](C)NC(=O)[C@H](CC(C)C)NC(=O)[C@H](CCCNC(=N)N)NC(=O)[C@H](CCC(N)=O)NC(=O)[C@@H](NC(=O)[C@H](C)NC(=O)[C@@H]1CSSC[C@H](NC(=O)[C@@H](N)CCCCNC(=O)COCCOCCNC(=O)CCCCCCCCCCCCCCCCCCC(=O)O)C(=O)N[C@@H](CC(N)=O)C(=O)N[C@@H]([C@@H](C)O)C(=O)N[C@@H](C)C(=O)N[C@@H]([C@@H](C)O)C(=O)N1)[C@@H](C)O)C(=O)N1CCC[C@H]1C(=O)N[C@@H](CO)C(=O)N[C@@H](CO)C(=O)N[C@H](C(=O)N[C@@H](CC(N)=O)C(=O)N[C@H](C(=O)NCC(=O)N[C@@H](CO)C(=O)N[C@@H](CC(N)=O)C(=O)N[C@H](C(=O)N[C@@H](Cc1ccc(O)cc1)C(N)=O)[C@@H](C)O)C(C)C)[C@@H](C)O
notes: also called compound 43
B4: N^ε1-[2-[2-[2-[[(4S)-4-carboxy-4-(19-carboxynonadecanoylamino)butanoyl]amino]ethoxy]ethoxy]acetyl]-[Arg17,Pro21,Pro27,Glu35]-h-amylin (peptide)
peptide: K([AEEA-γGlu-C20 diacid])CNTATCATQRLANFLRHSSPNFGAIPSSTNVGSETY-NH2
modifications: disulfide 2-7; N-terminus assumed
SMILES: CC[C@H](C)[C@H](NC(=O)[C@H](C)NC(=O)CNC(=O)[C@H](Cc1ccccc1)NC(=O)[C@H](CC(N)=O)NC(=O)[C@@H]1CCCN1C(=O)[C@H](CO)NC(=O)[C@H](CO)NC(=O)[C@H](Cc1c[nH]cn1)NC(=O)[C@H](CCCNC(=N)N)NC(=O)[C@H](CC(C)C)NC(=O)[C@H](Cc1ccccc1)NC(=O)[C@H](CC(N)=O)NC(=O)[C@H](C)NC(=O)[C@H](CC(C)C)NC(=O)[C@H](CCCNC(=N)N)NC(=O)[C@H](CCC(N)=O)NC(=O)[C@@H](NC(=O)[C@H](C)NC(=O)[C@@H]1CSSC[C@H](NC(=O)[C@@H](N)CCCCNC(=O)COCCOCCNC(=O)CC[C@H](NC(=O)CCCCCCCCCCCCCCCCCCC(=O)O)C(=O)O)C(=O)N[C@@H](CC(N)=O)C(=O)N[C@@H]([C@@H](C)O)C(=O)N[C@@H](C)C(=O)N[C@@H]([C@@H](C)O)C(=O)N1)[C@@H](C)O)C(=O)N1CCC[C@H]1C(=O)N[C@@H](CO)C(=O)N[C@@H](CO)C(=O)N[C@H](C(=O)N[C@@H](CC(N)=O)C(=O)N[C@H](C(=O)NCC(=O)N[C@@H](CO)C(=O)N[C@@H](CCC(=O)O)C(=O)N[C@H](C(=O)N[C@@H](Cc1ccc(O)cc1)C(N)=O)[C@@H](C)O)C(C)C)[C@@H](C)O
notes: also called compound 26
B5: N^ε1-[2-[2-[2-[[2-[2-[2-[[(4S)-4-carboxy-4-(19-carboxynonadecanoylamino)butanoyl]amino]ethoxy]ethoxy]acetyl]amino]ethoxy]ethoxy]acetyl]-[Arg17,Pro21,Pro27,Glu35 … (peptide)
peptide: K([AEEA-AEEA-γGlu-C20 diacid])CNTATCATQRLANFLRHSSPNFGAIPSSTNVGSETY-NH2
modifications: disulfide 2-7; N-terminus assumed
SMILES: CC[C@H](C)[C@H](NC(=O)[C@H](C)NC(=O)CNC(=O)[C@H](Cc1ccccc1)NC(=O)[C@H](CC(N)=O)NC(=O)[C@@H]1CCCN1C(=O)[C@H](CO)NC(=O)[C@H](CO)NC(=O)[C@H](Cc1c[nH]cn1)NC(=O)[C@H](CCCNC(=N)N)NC(=O)[C@H](CC(C)C)NC(=O)[C@H](Cc1ccccc1)NC(=O)[C@H](CC(N)=O)NC(=O)[C@H](C)NC(=O)[C@H](CC(C)C)NC(=O)[C@H](CCCNC(=N)N)NC(=O)[C@H](CCC(N)=O)NC(=O)[C@@H](NC(=O)[C@H](C)NC(=O)[C@@H]1CSSC[C@H](NC(=O)[C@@H](N)CCCCNC(=O)COCCOCCNC(=O)COCCOCCNC(=O)CC[C@H](NC(=O)CCCCCCCCCCCCCCCCCCC(=O)O)C(=O)O)C(=O)N[C@@H](CC(N)=O)C(=O)N[C@@H]([C@@H](C)O)C(=O)N[C@@H](C)C(=O)N[C@@H]([C@@H](C)O)C(=O)N1)[C@@H](C)O)C(=O)N1CCC[C@H]1C(=O)N[C@@H](CO)C(=O)N[C@@H](CO)C(=O)N[C@H](C(=O)N[C@@H](CC(N)=O)C(=O)N[C@H](C(=O)NCC(=O)N[C@@H](CO)C(=O)N[C@@H](CCC(=O)O)C(=O)N[C@H](C(=O)N[C@@H](Cc1ccc(O)cc1)C(N)=O)[C@@H](C)O)C(C)C)[C@@H](C)O
notes: also called compound 25
B6: N^α1N^α1-[(4S)-4-carboxy-4-(19-carboxynonadecanoylamino)butanoyl]-[Glu14,Arg17,Pro21,Pro27,Glu35]-h-amylin (peptide)
peptide: {C20 diacid-γGlu}-KCNTATCATQRLAEFLRHSSPNFGAIPSSTNVGSETY-NH2
modifications: disulfide 2-7
SMILES: CC[C@H](C)[C@H](NC(=O)[C@H](C)NC(=O)CNC(=O)[C@H](Cc1ccccc1)NC(=O)[C@H](CC(N)=O)NC(=O)[C@@H]1CCCN1C(=O)[C@H](CO)NC(=O)[C@H](CO)NC(=O)[C@H](Cc1c[nH]cn1)NC(=O)[C@H](CCCNC(=N)N)NC(=O)[C@H](CC(C)C)NC(=O)[C@H](Cc1ccccc1)NC(=O)[C@H](CCC(=O)O)NC(=O)[C@H](C)NC(=O)[C@H](CC(C)C)NC(=O)[C@H](CCCNC(=N)N)NC(=O)[C@H](CCC(N)=O)NC(=O)[C@@H](NC(=O)[C@H](C)NC(=O)[C@@H]1CSSC[C@H](NC(=O)[C@H](CCCCN)NC(=O)CC[C@H](NC(=O)CCCCCCCCCCCCCCCCCCC(=O)O)C(=O)O)C(=O)N[C@@H](CC(N)=O)C(=O)N[C@@H]([C@@H](C)O)C(=O)N[C@@H](C)C(=O)N[C@@H]([C@@H](C)O)C(=O)N1)[C@@H](C)O)C(=O)N1CCC[C@H]1C(=O)N[C@@H](CO)C(=O)N[C@@H](CO)C(=O)N[C@H](C(=O)N[C@@H](CC(N)=O)C(=O)N[C@H](C(=O)NCC(=O)N[C@@H](CO)C(=O)N[C@@H](CCC(=O)O)C(=O)N[C@H](C(=O)N[C@@H](Cc1ccc(O)cc1)C(N)=O)[C@@H](C)O)C(C)C)[C@@H](C)O
notes: also called compound 22

What was measured:
[1] = target: T1, human calcitonin receptor; experiment: SPA competition binding, membranes with human calcitonin receptor, displacement of 125I-calcitonin (Assay VII)
Method in brief: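 BHK hCTR membranes 35 ng/μL + SPA beads 0.05 mg/well; buffer 50 mM Hepes pH 7.4, 1 mM CaCl2, 5 mM MgCl₂, 0.1% OA, 0.02% Tween20. 120 min, 25° C., shaking. Scintillation count; IC50 by one-site binding competition.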

[2] = target: T1, human calcitonin receptor; experiment: ratio of IC50 at hCTR to IC50 at the human amylin receptor (reference)
Method in brief: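 Membranes (35 ng/μL final) + SPA beads, 50 mM Hepes pH 7.4 buffer with 1 mM CaCl2, 5 mM MgCl₂, 0.1% OA, 0.02% Tween20; 120 min, 25° C, shaking; centrifuged, counted; IC₅₀ by one-site binding competition.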

| IC50 [1] [nM] | Ratio hCT/hAmylin binding [2] | Binder |
| --- | --- | --- |
| 3.61 | 3.9 | {C20 diacid-γGlu}-KCNTATCATQRLAEFLRHSSPNFGAILPSTNVGSETY-NH2 (disulfide 2-7, also called compound 33) |
| 21.6 | 23.6 | B1 |
| 0.432 | 2.2 | B2 |
| 2.64 | 34.7 | B3 |
| 25.3 | 47.5 | B4 |
| 43.4 | 56.5 | B5 |
| 9.73 | 12.3 | B6 |
